# Test results published in paper PMC7037036, “C-Terminal Domain of the Human Zinc Transporter hZnT8 Is Structurally Indistinguishable from Its Disease Risk Variant (R325W)” (International Journal of Molecular Sciences, 2020).
# Where a chain is given by its changes, count along the chain named. Numbers in names are those of the source.
# B1: C-terminal domain (CTD) of the human zinc transporter 8 (hZnT8), wild type (domain or fragment, UniProt Q8IWU4 281-369, looked up)
# chain: SLNYSGVKELILAVDGVLSVHSLHIWSLTMNQVILSAHVATAASRDSQVVRREIAKALSKSFTMHSLTIQMESPVDQDPDCLFCEDPCD
# notes: human zinc transporter 8 (hZnT8, SLC30A8), C-terminal domain, Ser281-Asp369; Expressed as His-MBP-TEV-CTD from a pET28a-based vector; N-terminal tags removed with TEV protease; Measured mass 9.828 kDa; also called WT CTD; hZnT8 CTD; source: E. coli BL21 (DE3), purified (Ni-NTA, TEV cleavage, Hi-Trap Q anion exchange, repeated Ni-NTA, amylose resin); not shown: His tag, N-terminal, cleaved; MBP, …
# B2: C-terminal domain (CTD) of the human zinc transporter 8 (hZnT8), disease risk variant R325W (domain or fragment, UniProt Q8IWU4 281-369, looked up)
# chain: B1 chain with R45W
# notes: human zinc transporter 8 (hZnT8, SLC30A8), C-terminal domain, Ser281-Asp369, natural variant R325W (SNP rs13266634); Made from the WT CTD plasmid by QuikChange site-directed mutagenesis; N-terminal tags removed with TEV protease; also called R325W CTD; CTD of the disease risk variant; source: E. coli BL21 (DE3), purified (Ni-NTA, TEV cleavage, Hi-Trap Q anion exchange, repeated Ni-NTA, amylose …)
# Molecular target: the molecule itself
# Experiment: SEC; Superdex 75, protein 10 mg/mL, 20 mM Tris pH 7.5, 150 mM NaCl, native conditions; calibrated with standard proteins; for the WT CTD the profile was similar with 3 mM beta-mercaptoethanol and the tetramer was kept in 8 M urea (some aggregates)
row,Protein,stoichiometry N
1,B1,4
2,B2,4
